Molecular target: T1, CCND1 (G1/S-specific cyclin-D1) peptide on HLA-DPA1*01:03 / HLA-DPB1*04:01 (human)
T1 peptide: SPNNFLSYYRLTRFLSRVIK
Assay: multimer staining

B1: 03-CCND1219-238 (TCR, V domains shown)
Valpha: KDQVFQPSTVASSEGAVVEIFCNHSVSNAYNFFWYLHFPGCAPRLLVKGSKPSQQGRYNMTYERFSSSLLILQVREADAAVYYCAVCTLYNFNKFYFGSGTKLNVKP
Vbeta: GVTQTPKFQVLKTGQSMTLQCAQDMNHEYMSWYRQDPGMGLRLIHYSVGAGITDQGEVPNGYNVSRSTTEDFPLRLLSAAPSQTSVYFCASLTDNNEQFFGPGTRLTVL
Q: Does B1 bind?
A: Result: recognises

From patent publication US20220281942A1 (published 2022)
